From the Immune Epitope Database (IEDB)

Assays:
[1] = biological target: HLA-A*03:01; assay: IEDB peptide-MHC binding, purified MHC/direct/fluorescence; filed as Kd, often an IC50 or EC50 that approximates it; ≥ and ≤ were set here for values at or beyond the usual limits of such assays
[2] = biological target: HLA-A*11:01; assay: as above
[3] = biological target: HLA-A*31:01; assay: IEDB peptide-MHC binding, purified MHC/competitive/fluorescence; filed as Kd, often an IC50 or EC50 that approximates it; ≥ and ≤ were set here for values at or beyond the usual limits of such assays
[4] = biological target: HLA-A*24:02; assay: IEDB peptide-MHC binding, purified MHC/competitive/fluorescence; ≥ and ≤ were set here for values at or beyond the usual limits of such assays
[5] = biological target: HLA-A*03:01; assay: as above
[6] = biological target: HLA-A*11:01; assay: as above
[7] = biological target: HLA-B*58:01; assay: IEDB peptide-MHC binding, purified MHC/direct/fluorescence; filed as Kd, often an IC50 or EC50 that approximates it; ≥ and ≤ were set here for values at or beyond the usual limits of such assays
[8] = biological target: HLA-B*40:01; assay: as above; conditions: source organism: Escherichia coli O157:H7
[9] = biological target: HLA-A*31:01; assay: as above; conditions: source organism: Escherichia coli O157:H7
[10] = biological target: HLA-A*68:02; assay: as above; conditions: source organism: Escherichia coli O157:H7
[11] = biological target: HLA-B*18:01; assay: as above; conditions: source organism: Escherichia coli O157:H7
[12] = biological target: HLA-A*69:01; assay: as above
[13] = biological target: HLA-B*57:01; assay: as above
[14] = biological target: HLA-B*48:01; assay: as above; conditions: source organism: Escherichia coli O157:H7
[15] = biological target: HLA-B*27:05; assay: as above; conditions: source organism: Escherichia coli O157:H7
[16] = biological target: HLA-A*01:01; assay: as above
[17] = biological target: HLA-B*07:02; assay: as above; conditions: source organism: Escherichia coli O157:H7
[18] = biological target: HLA-B*15:17; assay: as above
[19] = biological target: HLA-A*02:01; assay: as above; conditions: source organism: Escherichia coli O157:H7
[20] = biological target: HLA-B*15:01; assay: IEDB peptide-MHC binding, purified MHC/competitive/fluorescence; filed as Kd, often an IC50 or EC50 that approximates it; ≥ and ≤ were set here for values at or beyond the usual limits of such assays
[21] = biological target: HLA-A*03:01; assay: as above
[22] = biological target: HLA-A*32:01; assay: IEDB peptide-MHC binding, purified MHC/competitive/radioactivity; filed as Kd, often an IC50 or EC50 that approximates it; ≥ and ≤ were set here for values at or beyond the usual limits of such assays; conditions: source organism: Dengue virus 1 Brazil/97-11/1997
[23] = biological target: HLA-A*30:01; assay: as above; conditions: source organism: Dengue virus 1 Brazil/97-11/1997
[24] = biological target: HLA-A*68:01; assay: as above; conditions: source organism: Dengue virus 1 Brazil/97-11/1997
[25] = biological target: HLA-A*02:12; assay: IEDB peptide-MHC binding, purified MHC/direct/fluorescence; filed as Kd, often an IC50 or EC50 that approximates it; ≥ and ≤ were set here for values at or beyond the usual limits of such assays; conditions: source organism: Mycobacterium tuberculosis str. Haarlem
[26] = biological target: HLA-A*02:11; assay: as above; conditions: source organism: Mycobacterium tuberculosis str. Haarlem
[27] = biological target: HLA-A*02:01; assay: IEDB peptide-MHC binding, purified MHC/competitive/fluorescence; ≥ and ≤ were set here for values at or beyond the usual limits of such assays
[28] = biological target: HLA-B*51:01; assay: IEDB peptide-MHC binding, purified MHC/competitive/fluorescence; filed as Kd, often an IC50 or EC50 that approximates it; ≥ and ≤ were set here for values at or beyond the usual limits of such assays; conditions: source organism: Macaca mulatta
[29] = biological target: HLA-B*46:01; assay: as above; conditions: source organism: Macaca mulatta
[30] = biological target: HLA-A*26:01; assay: as above; conditions: source organism: Macaca mulatta
[31] = biological target: HLA-B*27:03; assay: as above; conditions: source organism: Macaca mulatta
[32] = biological target: HLA-B*18:01; assay: as above; conditions: source organism: Macaca mulatta
[33] = biological target: HLA-A*69:01; assay: as above; conditions: source organism: Macaca mulatta
[34] = biological target: HLA-B*57:01; assay: as above; conditions: source organism: Macaca mulatta
[35] = biological target: HLA-B*39:01; assay: as above; conditions: source organism: Macaca mulatta
[36] = biological target: HLA-A*02:01; assay: as above; conditions: source organism: Macaca mulatta
[37] = biological target: HLA-B*15:01; assay: IEDB peptide-MHC binding, purified MHC/direct/fluorescence; filed as Kd, often an IC50 or EC50 that approximates it; ≥ and ≤ were set here for values at or beyond the usual limits of such assays; conditions: source organism: Escherichia coli O157:H7
[38] = biological target: HLA-B*44:02; assay: as above; conditions: source organism: Escherichia coli O157:H7
[39] = source organism: Mammarenavirus lassaense
[40] = source organism: Zaire ebolavirus
[41] = source organism: Escherichia coli O157:H7
[42] = source organism: Escherichia coli E22
[43] = source organism: Vaccinia virus
[44] = source organism: Vibrio cholerae
[45] = source organism: Influenza B virus
[46] = source organism: Mycobacterium tuberculosis
[47] = source organism: Sudan ebolavirus
[48] = source organism: Vaccinia virus WR
[49] = source organism: Yersinia pestis
[50] = source organism: Giardia lamblia ATCC 50803

For AVNNLVELK, the Kd [1, 39] was 2.4 µM, the Kd [2, 39] was 0.0112 µM and the Kd ([3]; source organism: Lassa virus Josiah) was 0.0775 µM.

Sequence DYHKILTAG has an IC50 [4, 40] of 39.9 µM, an IC50 [5, 40] of at least 164 µM and an IC50 [6, 40] of 58.5 µM.

Work on EEDAAVDDL yielded a Kd [7, 41] of at least 20 µM, a Kd [8] of 1.45 µM and a Kd [9] of at least 20 µM. It also gave a Kd [10] of at least 20 µM, a Kd [11] of at least 20 µM and a Kd [12, 41] of at least 20 µM. The Kd [13, 41] was at least 20 µM, the Kd [14] was at least 20 µM and the Kd [15] was at least 20 µM. It also gave a Kd [16, 41] of at least 20 µM, a Kd [17] of at least 20 µM and a Kd [18, 41] of at least 20 µM. It also gave a Kd [19] of at least 20 µM and a Kd [2, 41] of at least 20 µM.

EMFIIKYFK was tested, and the Kd [3, 42] was 0.394 µM, the Kd [20, 42] was at least 20 µM and the Kd [21, 42] was at least 20 µM.

In the case of IMYPSPNGH, the Kd ([21]; source organism: Shigella sonnei Ss046) is reported as 0.0077 µM.

INNQLLLQK showed an IC50 [5, 43] of 64.2 µM and an IC50 [6, 43] of 2.44 µM.

ITHPKYRKK gave a Kd ([21]; source organism: Vibrio antiquarius) of at least 20 µM.

KAYSEAETF was tested, and the Kd [7, 44] was 0.0238 µM, the Kd [13, 44] was 0.173 µM and the Kd [18, 44] was 0.0215 µM.

KSEPEGTRM gave a Kd [7, 45] of 19.7 µM, a Kd [13, 45] of at least 20 µM and a Kd [18, 45] of 3.5 µM.

Sequence KTFDTEYQK has a Kd ([2]; source organism: Dengue virus 1 Singapore/S275/1990) of 0.0125 µM, a Kd [22] of 7.72 µM and a Kd [23] of 0.388 µM. The Kd [24] was 0.0046 µM and the Kd ([3]; source organism: dengue virus type 1) was 0.128 µM.

With LLDEGKQSL the Kd [12, 46] was 7 µM, the Kd [25] was 0.004 µM and the Kd [26] was 0.004 µM.

In the case of LLGQNTPAI, the Kd [12, 46] is reported as 1.19 µM and the Kd [25] is reported as 0.004 µM.

LMMTATGEY showed a Kd ([21]; source organism: Escherichia coli B7A) of 1.78 µM.

LMQGSTLPR was tested, and the Kd ([1]; source organism: Influenza A virus (A/South Carolina/1/1918(H1N1))) was 6 µM and the Kd ([3]; source organism: Influenza A virus (A/swine/Italy/1509-6/97(H1N1))) was 0.0302 µM.

LRTYTILNR gave an IC50 [5, 47] of at least 286 µM.

LTGGTGVGK showed an IC50 ([4]; source organism: Variola virus) of 38.8 µM, an IC50 ([5]; source organism: Variola virus) of 5.75 µM and an IC50 ([6]; source organism: Variola virus) of 0.998 µM.

LVDYGLVSK was tested, and the IC50 [5, 48] was 12.5 µM and the IC50 [6, 48] was 1.33 µM.

For MVLASTTAK, the Kd ([1]; source organism: Influenza A virus (A/turkey/MN/735/79(H6N2))) was 0.0159 µM and the Kd ([3]; source organism: Influenza A virus (A/swine/Hannover/1/1981(H1N1))) was 0.0461 µM.

With MVQVHSQGR the IC50 [5, 40] was 61.4 µM and the IC50 [6, 40] was 4.76 µM.

For NLQPPALSK, the Kd ([21]; source organism: Rickettsia sibirica 246) was 0.43 µM.

QRVIPVYQV was tested, and the IC50 [5, 40] was at least 93.5 µM, the IC50 [27, 40] was at least 113 µM and the IC50 [6, 40] was 16.2 µM.

For RLNWLTHLK, the Kd ([1]; source organism: Influenza A virus (A/Nagasaki/N03/2005(H3N2))) was 0.264 µM and the Kd ([3]; source organism: Influenza A virus (A/CHU/2-524/2005(H3N2))) was 0.0025 µM.

In the case of SAEVVTLWY, the Kd ([16]; source organism: Pomacentrus moluccensis) is reported as 0.0016 µM, the Kd [28] is reported as at least 20 µM and the Kd [29] is reported as at least 20 µM. For the same sequence, the Kd [30] was at least 20 µM, the Kd [31] was at least 20 µM and the Kd [32] was at least 20 µM. For the same sequence, the Kd [33] was at least 20 µM, the Kd [34] was at least 20 µM and the Kd ([20]; source organism: Macaca mulatta) was at least 20 µM. The Kd [35] was at least 20 µM and the Kd [36] was at least 20 µM.

SLLQLPRDK showed an IC50 [5, 47] of 3.84 µM, an IC50 [27, 47] of 16.5 µM and an IC50 [6, 47] of 5.08 µM.

STFTRGAQK showed a Kd [1, 39] of 0.0784 µM, a Kd [2, 39] of 0.0015 µM and a Kd [3, 39] of 0.027 µM.

Sequence SVFESWLEK has a Kd [21, 42] of 0.211 µM.

With TCKAFGLYK the IC50 [5, 48] was 6.41 µM and the IC50 [6, 48] was 1.14 µM.

TSDGFINGW gave a Kd [7, 49] of 0.088 µM and a Kd [18, 49] of 0.251 µM.

TTHSKGATK gave a Kd [1, 50] of 0.337 µM, a Kd [2, 50] of 0.246 µM and a Kd [3, 50] of 0.454 µM.

In the case of VTRFESLK, the Kd ([21]; source organism: Influenza A virus (A/Swine/Minnesota/55551/2000(H1N2))) is reported as at least 20 µM.

YECTSRHFT gave a Kd [7, 41] of at least 20 µM, a Kd [8] of 2.27 µM and a Kd [9] of at least 20 µM. It also gave a Kd [10] of at least 20 µM, a Kd [11] of 0.318 µM and a Kd [12, 41] of at least 20 µM. It also gave a Kd [13, 41] of at least 20 µM, a Kd [37] of at least 20 µM and a Kd [14] of at least 20 µM. The Kd [15] was at least 20 µM, the Kd [1, 41] was at least 20 µM and the Kd [16, 41] was at least 20 µM. For the same sequence, the Kd [17] was at least 20 µM, the Kd [38] was at least 20 µM and the Kd [18, 41] was at least 20 µM. The Kd [19] was at least 20 µM and the Kd [2, 41] was at least 20 µM.
